Data from article PMC6561178, “Caulobacter crescentus Hfq structure reveals a conserved mechanism of RNA annealing regulation”.

Columns and labels:
[1] = molecular target: Caulobacter crescentus Hfq (Caulobacter crescentus); assay: crystal structure; hanging-drop vapor diffusion; Cc Hfq at 7 mg/mL; 0.2 M sodium thiocyanate, 17% PEG 3350; 2.15 Å; four hexamers in the asymmetric unit, space group P4_(3)
[2] = molecular target: T1, Ec65 (Escherichia coli, UniProt P0A6X3 1-65, del66-102); assay: EMSA; Hill n 1.7; EMSA: 34 mM Tris-HCl pH 7.5, 50 mM NaCl, 50 mM KCl, 50 mM NH4Cl, 11.4 mM EDTA, 12% glycerol, 30 C, 30 min, ~1 nM 32P-RNA, Kd in Hfq6; anisotropy: 10 mM Tris-HCl; conditions: protein: recombinant; tags: untagged; chain copies: 6; label: 32P; stem-loops
[3] = molecular target: T2, Ec Hfq (Hfq102) (Escherichia coli, UniProt P0A6X3 1-102); assay: EMSA; Hill n 1; Tris-glycine gel; EMSA: 34 mM Tris-HCl pH 7.5, 50 mM NaCl, 50 mM KCl, 50 mM NH4Cl, 11.4 mM EDTA, 12% glycerol, 30 C, 30 min, ~1 nM 32P-RNA, Kd in Hfq6; anisotropy: 10 mM Tris-HCl; conditions: protein: recombinant; tags: untagged; chain copies: 6; label: 32P; stem-loops
[4] = molecular target: T3, Cc78 (Caulobacter crescentus NA1000, UniProt B8GW92 1-78, del79-82); assay: EMSA; Hill n 1.2; EMSA: 34 mM Tris-HCl pH 7.5, 50 mM NaCl, 50 mM KCl, 50 mM NH4Cl, 11.4 mM EDTA, 12% glycerol, 30 C, 30 min, ~1 nM 32P-RNA, Kd in Hfq6; anisotropy: 10 mM Tris-HCl; conditions: protein: recombinant; tags: untagged after self-cleaved intein; chain copies: 6; label: 32P; stem-loops
T3 sequence: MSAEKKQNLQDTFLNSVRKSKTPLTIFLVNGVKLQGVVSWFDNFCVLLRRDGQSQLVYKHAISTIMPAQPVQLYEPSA

[5] = molecular target: T4, EcCc Hfq (Escherichia coli / Caulobacter …, UniProt P0A6X3 1-67+B8GW92:71-82, internal_change); assay: EMSA; Hill n 1.8; EMSA: 34 mM Tris-HCl pH 7.5, 50 mM NaCl, 50 mM KCl, 50 mM NH4Cl, 11.4 mM EDTA, 12% glycerol, 30 C, 30 min, ~1 nM 32P-RNA, Kd in Hfq6; anisotropy: 10 mM Tris-HCl; conditions: protein: recombinant; tags: untagged; chain copies: 6; label: 32P; stem-loops
[6] = molecular target: T2, Ec Hfq (Hfq102); assay: EMSA; Hill n 4.1; EMSA: 34 mM Tris-HCl pH 7.5, 50 mM NaCl, 50 mM KCl, 50 mM NH4Cl, 11.4 mM EDTA, 12% glycerol, 30 C, 30 min, ~1 nM 32P-RNA, Kd in Hfq6; anisotropy: 10 mM Tris-HCl; conditions: protein: recombinant; tags: untagged; chain copies: 6; label: 32P; stem-loops
[7] = molecular target: T3, Cc78; assay: EMSA; Hill n 5.5; EMSA: 34 mM Tris-HCl pH 7.5, 50 mM NaCl, 50 mM KCl, 50 mM NH4Cl, 11.4 mM EDTA, 12% glycerol, 30 C, 30 min, ~1 nM 32P-RNA, Kd in Hfq6; anisotropy: 10 mM Tris-HCl; conditions: protein: recombinant; tags: untagged after self-cleaved intein; chain copies: 6; label: 32P; stem-loops
[8] = molecular target: T4, EcCc Hfq; assay: EMSA; Hill n 4.5; EMSA: 34 mM Tris-HCl pH 7.5, 50 mM NaCl, 50 mM KCl, 50 mM NH4Cl, 11.4 mM EDTA, 12% glycerol, 30 C, 30 min, ~1 nM 32P-RNA, Kd in Hfq6; anisotropy: 10 mM Tris-HCl; conditions: protein: recombinant; tags: untagged; chain copies: 6; label: 32P; stem-loops
[9] = molecular target: T1, Ec65; assay: EMSA; Hill n 3.1; EMSA: 34 mM Tris-HCl pH 7.5, 50 mM NaCl, 50 mM KCl, 50 mM NH4Cl, 11.4 mM EDTA, 12% glycerol, 30 C, 30 min, ~1 nM 32P-RNA, Kd in Hfq6; anisotropy: 10 mM Tris-HCl; conditions: protein: recombinant; tags: untagged; chain copies: 6; label: 32P; stem-loops
[10] = molecular target: T2, Ec Hfq (Hfq102); assay: EMSA; Hill n 10.1; EMSA: 34 mM Tris-HCl pH 7.5, 50 mM NaCl, 50 mM KCl, 50 mM NH4Cl, 11.4 mM EDTA, 12% glycerol, 30 C, 30 min, ~1 nM 32P-RNA, Kd in Hfq6; anisotropy: 10 mM Tris-HCl; conditions: protein: recombinant; tags: untagged; chain copies: 6; label: 32P; stem-loops
[11] = molecular target: T4, EcCc Hfq; assay: EMSA; Hill n 30.2; EMSA: 34 mM Tris-HCl pH 7.5, 50 mM NaCl, 50 mM KCl, 50 mM NH4Cl, 11.4 mM EDTA, 12% glycerol, 30 C, 30 min, ~1 nM 32P-RNA, Kd in Hfq6; anisotropy: 10 mM Tris-HCl; conditions: protein: recombinant; tags: untagged; chain copies: 6; label: 32P; stem-loops
[12] = molecular target: T1, Ec65; assay: EMSA; Hill n 1.0; EMSA: 34 mM Tris-HCl pH 7.5, 50 mM NaCl, 50 mM KCl, 50 mM NH4Cl, 11.4 mM EDTA, 12% glycerol, 30 C, 30 min, ~1 nM 32P-RNA, Kd in Hfq6; anisotropy: 10 mM Tris-HCl; conditions: protein: recombinant; tags: untagged; chain copies: 6; label: 32P; stem-loops
[13] = molecular target: T3, Cc78; assay: EMSA; Hill n 3.5; EMSA: 34 mM Tris-HCl pH 7.5, 50 mM NaCl, 50 mM KCl, 50 mM NH4Cl, 11.4 mM EDTA, 12% glycerol, 30 C, 30 min, ~1 nM 32P-RNA, Kd in Hfq6; anisotropy: 10 mM Tris-HCl; conditions: protein: recombinant; tags: untagged after self-cleaved intein; chain copies: 6; label: 32P; stem-loops
[14] = molecular target: T2, Ec Hfq (Hfq102); assay: EMSA; Hill n 4.4; EMSA: 34 mM Tris-HCl pH 7.5, 50 mM NaCl, 50 mM KCl, 50 mM NH4Cl, 11.4 mM EDTA, 12% glycerol, 30 C, 30 min, ~1 nM 32P-RNA, Kd in Hfq6; anisotropy: 10 mM Tris-HCl; conditions: protein: recombinant; tags: untagged; chain copies: 6; label: 32P
[15] = molecular target: T2, Ec Hfq (Hfq102); assay: EMSA; Hill n 2.2; EMSA: 34 mM Tris-HCl pH 7.5, 50 mM NaCl, 50 mM KCl, 50 mM NH4Cl, 11.4 mM EDTA, 12% glycerol, 30 C, 30 min, ~1 nM 32P-RNA, Kd in Hfq6; anisotropy: 10 mM Tris-HCl; conditions: protein: recombinant; tags: untagged; chain copies: 6; label: 32P
[16] = molecular target: T4, EcCc Hfq; assay: EMSA; Hill n 1.0; EMSA: 34 mM Tris-HCl pH 7.5, 50 mM NaCl, 50 mM KCl, 50 mM NH4Cl, 11.4 mM EDTA, 12% glycerol, 30 C, 30 min, ~1 nM 32P-RNA, Kd in Hfq6; anisotropy: 10 mM Tris-HCl; conditions: protein: recombinant; tags: untagged; chain copies: 6; label: 32P; folded
[17] = molecular target: T2, Ec Hfq (Hfq102); assay: EMSA; Hill n 13; EMSA: 34 mM Tris-HCl pH 7.5, 50 mM NaCl, 50 mM KCl, 50 mM NH4Cl, 11.4 mM EDTA, 12% glycerol, 30 C, 30 min, ~1 nM 32P-RNA, Kd in Hfq6; anisotropy: 10 mM Tris-HCl; conditions: protein: recombinant; tags: untagged; chain copies: 6; label: 32P; folded
[18] = molecular target: T3, Cc78; assay: EMSA; Hill n 1.6; EMSA: 34 mM Tris-HCl pH 7.5, 50 mM NaCl, 50 mM KCl, 50 mM NH4Cl, 11.4 mM EDTA, 12% glycerol, 30 C, 30 min, ~1 nM 32P-RNA, Kd in Hfq6; anisotropy: 10 mM Tris-HCl; conditions: protein: recombinant; tags: untagged after self-cleaved intein; chain copies: 6; label: 32P; folded
[19] = molecular target: T1, Ec65; assay: EMSA; Hill n 3.7; EMSA: 34 mM Tris-HCl pH 7.5, 50 mM NaCl, 50 mM KCl, 50 mM NH4Cl, 11.4 mM EDTA, 12% glycerol, 30 C, 30 min, ~1 nM 32P-RNA, Kd in Hfq6; anisotropy: 10 mM Tris-HCl; conditions: protein: recombinant; tags: untagged; chain copies: 6; label: 32P; folded
[20] = molecular target: T3, Cc78; assay: EMSA; Hill n 2.5; EMSA: 34 mM Tris-HCl pH 7.5, 50 mM NaCl, 50 mM KCl, 50 mM NH4Cl, 11.4 mM EDTA, 12% glycerol, 30 C, 30 min, ~1 nM 32P-RNA, Kd in Hfq6; anisotropy: 10 mM Tris-HCl; conditions: protein: recombinant; tags: untagged after self-cleaved intein; chain copies: 6; label: 32P; stem-loops
[21] = molecular target: T4, EcCc Hfq; assay: EMSA; Hill n 8.7; EMSA: 34 mM Tris-HCl pH 7.5, 50 mM NaCl, 50 mM KCl, 50 mM NH4Cl, 11.4 mM EDTA, 12% glycerol, 30 C, 30 min, ~1 nM 32P-RNA, Kd in Hfq6; anisotropy: 10 mM Tris-HCl; conditions: protein: recombinant; tags: untagged; chain copies: 6; label: 32P; stem-loops
[22] = molecular target: T1, Ec65; assay: EMSA; Hill n 2.4; EMSA: 34 mM Tris-HCl pH 7.5, 50 mM NaCl, 50 mM KCl, 50 mM NH4Cl, 11.4 mM EDTA, 12% glycerol, 30 C, 30 min, ~1 nM 32P-RNA, Kd in Hfq6; anisotropy: 10 mM Tris-HCl; conditions: protein: recombinant; tags: untagged; chain copies: 6; label: 32P; stem-loops
[23] = molecular target: T2, Ec Hfq (Hfq102); assay: EMSA; Hill n 11.9; EMSA: 34 mM Tris-HCl pH 7.5, 50 mM NaCl, 50 mM KCl, 50 mM NH4Cl, 11.4 mM EDTA, 12% glycerol, 30 C, 30 min, ~1 nM 32P-RNA, Kd in Hfq6; anisotropy: 10 mM Tris-HCl; conditions: protein: recombinant; tags: untagged; chain copies: 6; label: 32P; stem-loops

Molecule: Caulobacter crescentus Hfq (natural protein)
- stoichiometry N [1]: 6

B1: R133 (structured_RNA)
RNA: GGAGCCCUUUCGGGCGUUUCCUCCCAAUGACUCGGCCGCCCUCUUCUCCUGGAGGGCGGCCGUUCUUUU
- Kd [2]: 21.6 ± 1.3 nM
- Kd [3]: 14.7 ± 1.3 nM
- Kd [4]: 242 ± 17 nM
- Kd [5]: 232 ± 46 nM

B2: RybB (structured_RNA)
RNA: GGCCACUGCUUUUCUUUGAUGUCCCCAUUUUGUGGAGCCCAUCAACCCCGCCAUUUCGGUUCAAGGUUGAUGGGUUUUUU
- Kd [6]: 21.5 ± 2 nM
- Kd [7]: 68.1 ± 1.9 nM
- Kd [8]: 37.3 ± 6.2 nM
- Kd [9]: 27.1 ± 0.9 nM

B3: ChiX (structured_RNA)
RNA: GGGACACCGUCGCUUAAAGUGACGGCAUAAUAAUAAAAAAAUGAAAUUCCUCUUUGACGGGCCAAUAGCGAUAUUGGCCAUUUUUUU
- Kd [10]: 20.3 ± 0.4 nM
- Kd [11]: 35.8 ± 0.4 nM
- Kd [12]: 95 ± 27 nM
- Kd [13]: 32.4 ± 0.4 nM

B4: hns (structured_RNA)
RNA: GAACAAACCACCCCAAUAUAAGUUUGAGAUUACUACAAUGAGCGAAGCACUUAAAAUUCUGAACAACAUCCGUACUCUUCGUGCGCAGGCAAGAGAAUGUACACUUGAAACGCUGGAAGAA
- Kd [14]: 19.7 ± 0.4 nM

B5: cfa (structured_RNA)
RNA: GGUUGUUAAAGCUACGAUAAAUAUUAUGUUUUUACGGGGACAGGAUCGUUCCCGACUCACUAUGGAUAGUCAUUUCGGCAAGGGUUCCUCCUUUCCCUCUGUUCUACGUCGGAUUAUAGACUCGCGGUUUUUUCUGCGAGAUUUCUCACAAAGCCCAAAAAGCGUCUACGCUGUUUUAAGGUUCUGAUCACCGACCAGUGAUGGAGAAACUAUGAGUUCAUCGUGUAUAGAAGAAGUCAGUGUACCGGAUGACAAC
- Kd [15]: 19 ± 0.5 nM

B6: RydC (structured_RNA)
RNA: GGCUUCCGAUGUAGACCCGUAUUCUUCGCCUGUACCACGGGUCGGUUUUAGUACAGGCGUUUUCUU
- Kd [16]: 237 ± 34 nM
- Kd [17]: 22.1 ± 0.2 nM
- Kd [18]: 167 ± 11 nM
- Kd [19]: 12.3 ± 0.4 nM

B7: DsrA (structured_RNA)
RNA: GGGAACACAUCAGAUUUCCUGGUGUAACGAAUUUUUUAAGUGCUUCUUGCUUAAGCAAGUUUCAUCCCGACCCCCUCAGGGUCGGGAUUUUUUU
- Kd [20]: 62.2 ± 4.4 nM
- Kd [21]: 42.5 ± 1 nM
- Kd [22]: 12.6 ± 1.9 nM
- Kd [23]: 21.1 ± 0.3 nM
